According to paper PMC5342555, “ATAD2 is an epigenetic reader of newly synthesized histone marks during DNA replication” (Oncotarget, 2016):

Target: H4K12ac-TAMRA peptide
Assay: fluorescence polarisation
Conditions: 8 nM H4K12ac-TAMRA peptide; value read at the highest BD mut concentration shown, est. about 500-600 nM; parent: est. 80; read off a plot

Sequence of ATAD2^342-1390 WT (Q6PL18 342-1390 V1013A/Y1021A/I1074A, change not shown): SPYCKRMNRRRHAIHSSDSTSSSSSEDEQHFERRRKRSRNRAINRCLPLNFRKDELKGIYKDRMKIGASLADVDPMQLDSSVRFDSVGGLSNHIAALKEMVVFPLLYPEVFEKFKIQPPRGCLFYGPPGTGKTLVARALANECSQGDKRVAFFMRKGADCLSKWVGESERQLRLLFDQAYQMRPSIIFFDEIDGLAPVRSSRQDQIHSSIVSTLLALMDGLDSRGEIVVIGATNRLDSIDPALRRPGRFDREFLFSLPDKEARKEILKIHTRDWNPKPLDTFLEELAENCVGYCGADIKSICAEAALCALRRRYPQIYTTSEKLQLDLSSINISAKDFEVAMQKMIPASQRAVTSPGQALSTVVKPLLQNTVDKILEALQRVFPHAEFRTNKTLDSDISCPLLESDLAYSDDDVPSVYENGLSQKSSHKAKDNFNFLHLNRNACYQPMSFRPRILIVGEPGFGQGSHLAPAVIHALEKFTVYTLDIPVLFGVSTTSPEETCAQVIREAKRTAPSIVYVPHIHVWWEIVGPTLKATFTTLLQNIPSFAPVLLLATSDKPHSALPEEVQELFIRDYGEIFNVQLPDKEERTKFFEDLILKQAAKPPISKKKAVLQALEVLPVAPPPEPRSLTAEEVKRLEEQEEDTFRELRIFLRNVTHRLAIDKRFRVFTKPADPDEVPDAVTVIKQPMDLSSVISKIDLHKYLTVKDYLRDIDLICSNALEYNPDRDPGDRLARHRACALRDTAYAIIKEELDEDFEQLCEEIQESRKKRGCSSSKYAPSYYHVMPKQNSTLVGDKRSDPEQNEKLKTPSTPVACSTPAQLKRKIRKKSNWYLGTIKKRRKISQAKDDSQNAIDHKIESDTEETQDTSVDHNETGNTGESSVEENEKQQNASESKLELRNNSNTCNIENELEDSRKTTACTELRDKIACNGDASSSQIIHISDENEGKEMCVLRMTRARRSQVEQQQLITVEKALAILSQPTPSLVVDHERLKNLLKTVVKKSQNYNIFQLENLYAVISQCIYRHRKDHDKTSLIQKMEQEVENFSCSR

response: 14 mP
Substance: ATAD2^342-1390 WT (from UniProt Q6PL18) BD mut
